Experiment: soluble on expression in E. coli; label from the status in PepcDB or PDB records

Sequence | soluble on expression in E. coli
LPIISIDTKQQVIPLVTKEGGKYVKARDNINVDIELRDSPSRSHHLSEKPRIRTKGLISYRGNTSRYFDKKSLKVKFVTNKLKEKKHRLAGMPKESEWVLHGPFLDRTLLRNYLSYNIAGEIMSYAPNVRYCELFVNGEYQGVYLAVENIEQGEQRVPIEKSDKKLHKTPYIVAWDREHKAKQKLDNYVHYTHQSGISALDVKYPGKQRLTSKQLEFINKDINHIEKVLYSYDFSQYPKYIDRESFANYFVINEFFRNVDAGKFSTYLYKDLRDRAKLVVWDFNNAFDNQIEGRVDEADFTLTDAPWFNMLIKDKAFIDLVVHRYKELRKGVLATEYLSNYIDETRHFLGPAIDRNYKKWGYVFDLKNTDPRNYLIPTERNVTSYHKSVEQLKDFIKKRGRWMDRNIETLYQYSAPSKNTNTLLE | not soluble
MTQANLSETLFKPRFKHTETSTLVRRFNRGSQPPMQSALDGKNVPHWYRMINRLMWIWRGVDPREILDVQARIVMSDAERTDDDLYDTVIGYRGGNWIYEWAKQAMDWQQKACQEQDAMRSGRYWLHASTLYNIAAYPHLKGDELAEQAQALANRAYEEAAQRLPGSLREMEFAVPGGSPVTAFLHMPKGDGPFPTVLMCGGLDAMQTDYYTLYERYFAPRGIAMLTLDMPSVGFSSKWKLTQDSSLLHQHVLKALPNVPWVDHTRVAAFGFRFGANVAVRLAYLEAPRLKAVACLGPVVHALLSDPQRQSTVPEMYLDVLASRLGMHDASDEALRVELNRYSLKVQGLLGRRCPTPMLSGFWKNDPFSPEEESRLITTSSSDGKLIEIPFNPVYRNFDRALQEITDWINHRLC | not soluble
QVQLQQSGAELVKPGASVRMSCKASGYTFTNYNMYWVKQSPGQGLEWIGIFYPGNGDTSYNQKFKDKATLTADKSSNTAYMQLSSLTSEDSAVYYCARSGGSYRYDGGFDYWGQGTTVTVSS | soluble
MHSAVFSPDAPYCGAAGSNHLCEAVALCQSILARYRRTGTSFSSTELKAIQALRTEFPDTAQEPAANSAASPDQTTKDFLSILDDATDVPHNPQNDIVAFVEECCDNTKEPTVLFAAINERISAVTCSRNVRTYMVIANDNLLWDPVNGVAALIDDVTPLGKCAQARNMLTIANTLYIPLWFRSELVGCVEVPGACIPRDKATCAQLLLRCVTVAVRNSINISIRKREANKIEAMVGMATRLARDTLEESVLVQSIINTAKTLTESDRCSIFLVKADGSLEAHFEDGNVVVLPAGTGIAGHVAESGAVVNIPNAYEDDRFHRSVDKVTGYHTRTILCLPIAFEGTIVAVAQLINKLDMVTQSGQRLPRVFGRRDEELFETFSMFAAASLRNCRINETLLKEKKKSDAILDVVALLSNTDIRDVDSIVRHVLHGAKKLLNADRSSMFLLDKERNELYSKMADSANEIRFPCGQGIAGTVAESGVGENIMDAYADSRFNSAVDRQLGYRTQSILCEPITLNGEVLAVVQLVNKLGDDGSVTCFTPMDRETFQVFSLFAGISINNSHLLEFAVNAGREAMTLSLQRNSITAQRAPKSVKVIAVTPEEREAVMSIDFGGAYDFTSPGFNLFEVREKYSEPMDAAAGVVYNLLWNSGLPEKFGCREQTLLNFILQCRRRYRRVPYHNFYHVVDVCQTLHTYLYTGKASELLTELECYVLLVTALVHDLDHMGVNNSFYLKTDSPLGILSSASGNNSVLEVHHCSLAIEILSDPAADVFEGLSGQDVAYAYRALIDCVLATDMAKHADALSRFTELATSGFEKDNDTHRRLVMETLIKAGDVSNVTKPFETSRMWAMAVTEEFYRQGDMEKEKGVEVLPMFDRSKNNELARGQIGFIDFVAGKFFRDIVGNLFHGMQWCVDTVNSNRAKWQEILDGRRDSIRSSIV | not soluble
MNYSHPISLKTLVQEDDIGVNAPIIHQSVIARLTAGLYPLYQSKKIPFEPLPETMLTEGYSSPVPDVLLYDHQTEEAKVIIEVCQNSGLKHDTSKIVKLIEDNAYGILEGFVFNYKTQQWLRYRLGDGGVATNSSFSEVLQVDLNTFV | soluble
MEEGSAIDYQRVPPLSGTHYASTVSAGFYEATPLLGSLVHTLEHGAVIVYYDPDEISPEARQSLREFSSVHTGTWRSVVAVPNPNDDPRATYVVTAWQHELTIDSYDAETVHAFLSEYLGRGPENPVRLEHHHHHH | soluble
MDKIKVGLQYWIPQHALTRLVGKLASARAGSLTTAIIRWFIKQYNVNMDEALHSDPTHFKTFNEFFVRELKAGVRPIAEGEKVITHPADACVSQFGAIEYGKLIQAKGHTYSAQELLGGDAKLAEEFRDGDFATLYLSPRDYHRVHMPCDGTLRQMIYVPGDLFSVNPLTAENVPNLFARNERVVCIFDTEFGPMAQVLVGATIVGSIELVWAGTVTPPRGNTVYRWDYPANGNQAVVLKKGEEMGRFKLGSTVINLFAKQAIRFDDSMALGAPTRMGEPYAHQA | soluble
MARKIRKLRKAEVNYITIKATLEAEKKEDYLKLALLTEKFKRAVELSIRLQLKGVKKSEGVKEVSRLILNNWWYSDSAWDYAKMLRKGAERS | not soluble
SLSANLVGITGIARRLVQDGSIEEATARTAQNQAMAAKVPLPQWLIDKKLVSAAKLAAANALEFGMPLLDVSAFDHNHNAMNLVDEELLQKHRVLPLFKRGNRLFVGISNPTQTQALDDIKFHTNLVVEPILVDEDQIRRTLEQWQSRKG | soluble
QSIVVDMREFRSELPSLIHRRGIDIEPVTLEVGDYILTPEMCVERKSISDLIGSLNNGRLYSQCISMSRYYKRPVLLIEFD | not soluble
MGSDKIHHHHHHMNIRLYSDLHIEFEDFHAPADGADVVVLAGDVDVGVRGIDWIVRQEFSCPVIYVMGNHEYYNHRYPSLLGKVKQHAAGKNIHILENESVEIDGVRFHGATLWADFKLFGDPRVAGYECQQVMRDYKKIRKEPSYSKLRSIDVASIHNQSLSWLAESLASSKSSVNVVVTHHAPSMLSVPAYYQDNLVTAAYASDLSAFIDEHKPDYWLHGHLHTSSNYYLGACQVLANPKGYKGEVNESFDPSFSLTLAKRGV | not soluble
MAEELVLERCDLELETNGRDHHTADLCREKLVVRRGQPFWLTLHFEGRNYQASVDSLTFSVVTGPAPSQEAGTKARFPLRDAVEEGDWTATVVDQQDCTLSLQLTTPANAPIGLYRLSLEASTGYQGSSFVLGHFILLFNAWCPADAVYLDSEEERQEYVLTQQGFIYQGSAKFIKNIPWNFGQFQDGILDICLILLDVNPKFLKNAGRDCSRRSSPVYVGRVGSGMVNCNDDQGVLLGRWDNNYGDGVSPMSWIGSVDILRRWKNHGCQRVKYGQCWVFAAVACTVLRCLGIPTRVVTNYNSAHDQNSNLLIEYFRNEFGEIQGDKSEMIWNFHCWVESWMTRPDLQPGYEGWQALDPTPQEKSEGTYCCGPVPVRAIKEGDLSTKYDAPFVFAEVNADVVDWIQQDDGSVHKSINRSLIVGLKISTKSVGRDEREDITHTYKYPEGSSEEREAFTRANHLNKLAEKEETGMAMRIRVGQSMNMGSDFDVFAHITNNTAEEYVCRLLLCARTVSYNGILGPECGTKYLLNLTLEPFSEKSVPLCILYEKYRDCLTESNLIKVRALLVEPVINSYLLAERDLYLENPEIKIRILGEPKQKRKLVAEVSLQNPLPVALEGCTFTVEGAGLTEEQKTVEIPDPVEAGEEVKVRMDLVPLHMGLHKLVVNFESDKLKAVKGFRNVIIGPA | soluble
MPGTPIPMGRQTHRAHSASGFYTPHVSKLKTNYDREFQKFLRSAKTAIDHLDKIEMQILCPLKKKIKRFHKESNTLDVYFRSQTYWRSFYKELMNRSDDVMDCFRFEDLRDVAAVVESHRLPDVLVSFVTQQLMEWRELFKDVEWMRKFRELSHNMDSLKTKRIEHVLRQDIIREIGVAIDVHNLKIDDFRSHSNNTERVAEGIAHAIEESKNKQDAGNQLKHVPVLSKQMSVRRWYREHYGDPQALSDESDEESLSDGDNSSLFVGTADSSSRDASDISTEEVVTENEFDEFFN | not soluble
MSLGENVEFKEFLGNFHLKEGRFRQLACQMNHRIIMGKGVALYVVGVSDSGEIKGIDENKFSETIEVLKKLATEIEAEVSSVERHEVNGGYVGLVEIRKTKAKEHILVGTAGHVDHGKSTLVGCLITGKPDDGDGATRVYLDVLKHEIERGLSAEISFAVFGYKDGKVLRMKNPLSKAEKAMVVETADKLVSFVDTVGHEPWLRTTIRGLLGQKVDYGLLVVAANDGVMRTTKEHLGIMLAMDLPVIVAVTKADMVDDARLSEVLQEISATLRRVGRVPTVLKSRHDARKAAEMVKSNKLLVPVVITSAVTLEGYDILEEIFLHLPKRYTADEDFLMYIDKIYSVTGVGTVVSGSVKSGELAEGDEVYIGPFQDGSFRRVRIQSIEMHHYRIDRAKAGDIIGAAVKGVRYDELRRGMVISRKEPRAVWEFDAEIYVFTHPTLISVGYEPVMHVETISETVTFVEMDKEYLKPGDRGIVRMKFKYHPHFVYEGQKFIFREGRSKGMGEIIRVFEGHHHHHH | soluble
RQEQRRTDHELREQLHFRQALIDAIPAPIYFMDTTGIFLGCNKAFEAFSGHTQDEIVGKTIYDLMPPSLAKHTDSADRELFEHGGIQIYESVISFADGALHDVIFYKATFTTTEKNIGGLVGTILDIT | not soluble
MAHHHHHHMGTLEAQTQGPGSMLNKVMLIGYLGDDPESKTMTSGAEVVNFRMATFESYMNKNTHQKVEKTEWHSVVVFNPHFAKIALQYLHKGSKVYIEGKLQTRKWQDKNGHDRYTTEIVLPQYKGELHLLDAKKEQSASSSSVTSQSYAIASGADDYGISAHDSMPF | soluble
MSNPITITESAQSHFAKLLAQQPEGTNIRVFVVNPGTQNAECGVSYCPPEAVEATDTEYPFSGFSAYVDELSLPFLEEAVIDFVTDKMGSQLTLKAPNAKMRKVSDDASLMERVEYALQTQVNPQLAGHGGHVRLISISDDGVALVQFGGGCNGCSMVDVTLKEGIEKELLAQFAGELTAVRDSTEHDRGEHSYY | not soluble
MAHHHHHHMRLRSPCGVKGIAADALVDLVQSCYPSATVLFTSVANNVAAADNSELRISSSLDAWQAKLHTRRAWRQGLSVDTPGFQRILARRHIVPARSAEAAASSWWALLYAADATNRPRVALPRQPSQSLPPSHIAHPILCCPDAIVYIGGVEVRDVTQVVAPTLVDAVTRVEAPHSTVGAASATHRAERQAPSYCRRRVDWPTVWADKRCAMRGADLLELSLAVPSDLGHRHADVRERVLVSIANPDVTLADLQRQPHAGRRGPLRTSFGFSLPCVQAALPAAVIRAVRVLRRWQRDVAHCIPSTSAFWVSSIGHLLETSVGDAASPLTQWAEACTRQEQELGMSETQMRHLFAIVQPDSDQTSTRVPLPEDATKLLTFLLTSTVLQLACTSPLEAWNGTNYFLPAERFDGTTDAEVLLRTMRSVAGTHLTFPIFSSLYGSPCGAEQGPLSQSSP | not soluble
MLLCDTNIWLALALSGHVHHRASRAWLDTINAPGVIHFCRATQQSLLRLLTNRTVLGAYGSPPLTNREAWAAYAAFLDDDRIVLAGAEPDGLEAQWRAFAVRQSPAPKVWMDAYLAAFALTGGFELVTTDTAFTQYGGIELRLLAK | not soluble
MVLFDQATYEKLLIEAPKFKLITPSILSDRMRVYICIYLLISYSRNDSYIIWQ | not soluble
MGGRSAQPRRFSFACRILHPAVAHDAMAGSRYILRAPASIIRLAQHGWLHCCLHFFLFPAMNDVCFVAKGSALYLFTVEIIVFGSPSLRHNVLSFFYFALPWFKRQCRLKVNFNRLKEIRGIAQVVRKAFFISKTLPCI | soluble
AKTEQQIADIVNRTITPLMQEQAIPGMAVAIIYEGKPYYFTWGKADIANNHPVTQQTLFELGSVSKTFNGVLGGDAIARGEIKLSDPVTKYWPELTGKQWRGISLLHLATYTAGGLPLQIPDDITDKAALLRFYQNWQPQWTPGAKRLYANSSIGLFGALAVKPSGMSYEEAMTRRVLQPLKLAHTWITVPQSEQKNYAWGYREGKPVHVSPGQLDAEAYGVKSSVIDMARWVQANMDASHVQEKTLQQGIELAQSRYWRIGDMYQGLGWEMLNWPLKADSIINGSDSKVALAALPAVEVNPPVPAVKASWVHKTGSTGGFGSYVAFVPEKNLGIVMLANKSYPNPVRVEAAWRILEKLQ | soluble
